Key:
[1] = target: T1, biotinylated recombinant hK2 protein (human, UniProt P20151 25-261, biotin label (EZ-Link Sulfo-NHS-LC-Biotin)); assay: flow cytometry; JNL (Jurkat NFAT-luciferase) cells transduced with the CAR, stained with biotinylated hK2 then streptavidin-PE; UTD control gate 0.021
T1 construct: In-house biotin-labelled recombinant hK2 used as the flow cytometry reagent; also called biotinylated hK2; Biotin-Hk2 protein
Method: Lentiviral transduction was performed as follows. JNL cells were harvested and resuspended to 1E6/ml. 500 μl of JNL cells and lentiviral virus were added at a MOI of 3, and mixed by pipetting up and down. The mixture was incubate in a 37° C. incubator for 24 hours. 500 μl JNL media was added to each well, with culturing continued in a 37° C. incubator. The cells were transferred to a T25 flask on day 4. At days 5-6, transduction validation was performed. […] The JNL cells were maintained at 5×10⁵/ml until enough cells were obtained to either freeze down or use in the assay.

[2] = target: T1, biotinylated recombinant hK2 protein; assay: flow cytometry; primary human T cells lentivirally transduced with the CAR (MOI 3), day 14, stained with biotinylated hK2 (1 µg/ml) then streptavidin-PE; UTD control gate 0.086
Method: The cells were resuspended in 100 μl of Biotin labeled hK2 (1 μg/ml diluted in FACS buffer) and incubated on ice for 30 minutes. 100 μl of FACS buffer was added, and spun washed at 4° C. The spin wash was repeated after adding another 200 μl FACS buffer. Staining with 100 μl of master solution containing secondary antibody SA-PE (1:250), live dead fixable stain (1:500), αCD3, αCD4 and αCD8 antibodies was performed on ice for 30 minutes. 100 μl FACS buffer was added and spun wash at 4° C., discarded and resuspended in 200 μl FACS buffer before spin washing at 4° C. The samples were resuspended in 100 μl FACS Buffer before analyzing by flow cytometry.

T1 sequence (P20151 25-261): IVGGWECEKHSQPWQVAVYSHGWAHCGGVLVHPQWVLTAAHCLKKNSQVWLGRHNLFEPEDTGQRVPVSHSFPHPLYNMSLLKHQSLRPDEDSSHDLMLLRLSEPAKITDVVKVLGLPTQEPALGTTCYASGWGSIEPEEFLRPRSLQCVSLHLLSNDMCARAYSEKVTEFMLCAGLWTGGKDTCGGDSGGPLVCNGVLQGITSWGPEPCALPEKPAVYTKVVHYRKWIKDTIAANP

Binder | percent of cells in the PE-positive gate (hK2 CAR) [1] [%] | percent of CD3+ T cells in the PE-positive gate (hK2 CAR) [2] [%]
CAR9 (LH_LCB7_HCG5_20AA) (other, also called construct 9; pDR000083444) DIVLTQSPDSLAVSLGERATINCKASESVEYFGTSLMHWYQQKPGQPPKLLIYAASNRESGVPDRFSGSGSGTDFTLTISSVQAEDVAVYYCQQTRKVPYTFGQGTKLEIKGGSEGKSSGSGSESKSTGGSQVQLQESGPGLVKPSDTLSLTCAVSGNSITSDYAWNWIRQFPGKGLEWMGYISYSGSTTYNPSLKSRVTISRDTSKNQFSLKLSSVTPVDTAVYYCATGYYYGSGFWGQGTLVTVSSTSTPAPRPPTPAPTIASQPLSLRPEACRPAAGGAVHTRGLDFACDIYIWAPLAGTCGVLLLSLVITLYCKRGRKKLLYIFKQPFMRPVQTTQEEDGCSCRFPEEEEGGCELRVKFSRSADAPAYKQGQNQLYNELNLGRREEYDVLDKRRGRDPEMGGKPRRKNPQEGLYNELQKDKMAEAYSEIGMKGERRRGKGHDGLYQGLSTATKDTYDALHMQALPPR | 68 | 30.6
CAR4 (HL_HCG5_LCB7_20AA) (other, also called construct 4; pDR000083437) QVQLQESGPGLVKPSDTLSLTCAVSGNSITSDYAWNWIRQFPGKGLEWMGYISYSGSTTYNPSLKSRVTISRDTSKNQFSLKLSSVTPVDTAVYYCATGYYYGSGFWGQGTLVTVSSGGSEGKSSGSGSESKSTGGSDIVLTQSPDSLAVSLGERATINCKASESVEYFGTSLMHWYQQKPGQPPKLLIYAASNRESGVPDRFSGSGSGTDFTLTISSVQAEDVAVYYCQQTRKVPYTFGQGTKLEIKTSTPAPRPPTPAPTIASQPLSLRPEACRPAAGGAVHTRGLDFACDIYIWAPLAGTCGVLLLSLVITLYCKRGRKKLLYIFKQPFMRPVQTTQEEDGCSCRFPEEEEGGCELRVKFSRSADAPAYKQGQNQLYNELNLGRREEYDVLDKRRGRDPEMGGKPRRKNPQEGLYNELQKDKMAEAYSEIGMKGERRRGKGHDGLYQGLSTATKDTYDALHMQALPPR | 64.3 | 42.7
CAR3 (HL_HCF3_LCB7_20AA) (other, also called construct 3; pDR000083436) QVQLQESGPGLVKPSDTLSLTCAVSGNSITSDYAWNWIRQFPGKGLEWIGYISYSGSTTYNPSLKSRVTISRDTSKNQFSLKLSSVTPVDTAVYYCATGYYYGSGFWGQGTLVTVSSGGSEGKSSGSGSESKSTGGSDIVLTQSPDSLAVSLGERATINCKASESVEYFGTSLMHWYQQKPGQPPKLLIYAASNRESGVPDRFSGSGSGTDFTLTISSVQAEDVAVYYCQQTRKVPYTFGQGTKLEIKTSTPAPRPPTPAPTIASQPLSLRPEACRPAAGGAVHTRGLDFACDIYIWAPLAGTCGVLLLSLVITLYCKRGRKKLLYIFKQPFMRPVQTTQEEDGCSCRFPEEEEGGCELRVKFSRSADAPAYKQGQNQLYNELNLGRREEYDVLDKRRGRDPEMGGKPRRKNPQEGLYNELQKDKMAEAYSEIGMKGERRRGKGHDGLYQGLSTATKDTYDALHMQALPPR | 64.3 | 29.4
CAR2 (HL_HCG5_LCHumanized_20AA) (other, also called construct 2) QVQLQESGPGLVKPSDTLSLTCAVSGNSITSDYAWNWIRQFPGKGLEWMGYISYSGSTTYNPSLKSRVTISRDTSKNQFSLKLSSVTPVDTAVYYCATGYYYGSGFWGQGTLVTVSSGGSEGKSSGSGSESKSTGGSDIVLTQSPDSLAVSLGERATINCKASESVEYFGTSLMHWYQQKPGQPPKLLIYAASNRESGVPDRFSGSGSGTDFTLTISSLQAEDVAVYYCQQTRKVPYTFGQGTKLEIKTSTPAPRPPTPAPTIASQPLSLRPEACRPAAGGAVHTRGLDFACDIYIWAPLAGTCGVLLLSLVITLYCKRGRKKLLYIFKQPFMRPVQTTQEEDGCSCRFPEEEEGGCELRVKFSRSADAPAYKQGQNQLYNELNLGRREEYDVLDKRRGRDPEMGGKPRRKNPQEGLYNELQKDKMAEAYSEIGMKGERRRGKGHDGLYQGLSTATKDTYDALHMQALPPR | 65.4 | 23.6
CAR1 (HL_HCG5_LCD6_20AA) (other, also called construct 1; pDR000083431) QVQLQESGPGLVKPSDTLSLTCAVSGNSITSDYAWNWIRQFPGKGLEWMGYISYSGSTTYNPSLKSRVTISRDTSKNQFSLKLSSVTPVDTAVYYCATGYYYGSGFWGQGTLVTVSSGGSEGKSSGSGSESKSTGGSDIVLTQSPDSLAVSLGERATINCKASESVEYFGTSLMHWYQQKPGQPPKLLIYAASNRESGVPDRFSGSGSGTDFTLTIQSVQAEDVSVYFCQQTRKVPYTFGQGTKLEIKTSTPAPRPPTPAPTIASQPLSLRPEACRPAAGGAVHTRGLDFACDIYIWAPLAGTCGVLLLSLVITLYCKRGRKKLLYIFKQPFMRPVQTTQEEDGCSCRFPEEEEGGCELRVKFSRSADAPAYKQGQNQLYNELNLGRREEYDVLDKRRGRDPEMGGKPRRKNPQEGLYNELQKDKMAEAYSEIGMKGERRRGKGHDGLYQGLSTATKDTYDALHMQALPPR | 61.9 | 20

Other lines, results leading:

percent of cells in the PE-positive gate (hK2 CAR) [1] [%] | percent of CD3+ T cells in the PE-positive gate (hK2 CAR) [2] [%] | Binder
66.3 | 21.5 | CAR8 (LH_LCB7_HCF3_20AA) (other, also called construct 8; pDR000083443) DIVLTQSPDSLAVSLGERATINCKASESVEYFGTSLMHWYQQKPGQPPKLLIYAASNRESGVPDRFSGSGSGTDFTLTISSVQAEDVAVYYCQQTRKVPYTFGQGTKLEIKGGSEGKSSGSGSESKSTGGSQVQLQESGPGLVKPSDTLSLTCAVSGNSITSDYAWNWIRQFPGKGLEWIGYISYSGSTTYNPSLKSRVTISRDTSKNQFSLKLSSVTPVDTAVYYCATGYYYGSGFWGQGTLVTVSSTSTPAPRPPTPAPTIASQPLSLRPEACRPAAGGAVHTRGLDFACDIYIWAPLAGTCGVLLLSLVITLYCKRGRKKLLYIFKQPFMRPVQTTQEEDGCSCRFPEEEEGGCELRVKFSRSADAPAYKQGQNQLYNELNLGRREEYDVLDKRRGRDPEMGGKPRRKNPQEGLYNELQKDKMAEAYSEIGMKGERRRGKGHDGLYQGLSTATKDTYDALHMQALPPR
70.3 | 27.8 | CAR6 (LH_LCHumanized_HCF3_20AA) (other, also called construct 6; pDR000083440) DIVLTQSPDSLAVSLGERATINCKASESVEYFGTSLMHWYQQKPGQPPKLLIYAASNRESGVPDRFSGSGSGTDFTLTISSLQAEDVAVYYCQQTRKVPYTFGQGTKLEIKGGSEGKSSGSGSESKSTGGSQVQLQESGPGLVKPSDTLSLTCAVSGNSITSDYAWNWIRQFPGKGLEWIGYISYSGSTTYNPSLKSRVTISRDTSKNQFSLKLSSVTPVDTAVYYCATGYYYGSGFWGQGTLVTVSSTSTPAPRPPTPAPTIASQPLSLRPEACRPAAGGAVHTRGLDFACDIYIWAPLAGTCGVLLLSLVITLYCKRGRKKLLYIFKQPFMRPVQTTQEEDGCSCRFPEEEEGGCELRVKFSRSADAPAYKQGQNQLYNELNLGRREEYDVLDKRRGRDPEMGGKPRRKNPQEGLYNELQKDKMAEAYSEIGMKGERRRGKGHDGLYQGLSTATKDTYDALHMQALPPR
60 | 20.1 | CAR10 (LH_LCD6_HCF3_20AA) (other, also called construct 10; pDR000083446) DIVLTQSPDSLAVSLGERATINCKASESVEYFGTSLMHWYQQKPGQPPKLLIYAASNRESGVPDRFSGSGSGTDFTLTIQSVQAEDVSVYFCQQTRKVPYTFGQGTKLEIKGGSEGKSSGSGSESKSTGGSQVQLQESGPGLVKPSDTLSLTCAVSGNSITSDYAWNWIRQFPGKGLEWIGYISYSGSTTYNPSLKSRVTISRDTSKNQFSLKLSSVTPVDTAVYYCATGYYYGSGFWGQGTLVTVSSTSTPAPRPPTPAPTIASQPLSLRPEACRPAAGGAVHTRGLDFACDIYIWAPLAGTCGVLLLSLVITLYCKRGRKKLLYIFKQPFMRPVQTTQEEDGCSCRFPEEEEGGCELRVKFSRSADAPAYKQGQNQLYNELNLGRREEYDVLDKRRGRDPEMGGKPRRKNPQEGLYNELQKDKMAEAYSEIGMKGERRRGKGHDGLYQGLSTATKDTYDALHMQALPPR
71.9 | 35 | CAR7 (LH_LCHumanized_HCG5_20AA) (other, also called construct 7; pDR000083441) DIVLTQSPDSLAVSLGERATINCKASESVEYFGTSLMHWYQQKPGQPPKLLIYAASNRESGVPDRFSGSGSGTDFTLTISSLQAEDVAVYYCQQTRKVPYTFGQGTKLEIKGGSEGKSSGSGSESKSTGGSQVQLQESGPGLVKPSDTLSLTCAVSGNSITSDYAWNWIRQFPGKGLEWMGYISYSGSTTYNPSLKSRVTISRDTSKNQFSLKLSSVTPVDTAVYYCATGYYYGSGFWGQGTLVTVSSTSTPAPRPPTPAPTIASQPLSLRPEACRPAAGGAVHTRGLDFACDIYIWAPLAGTCGVLLLSLVITLYCKRGRKKLLYIFKQPFMRPVQTTQEEDGCSCRFPEEEEGGCELRVKFSRSADAPAYKQGQNQLYNELNLGRREEYDVLDKRRGRDPEMGGKPRRKNPQEGLYNELQKDKMAEAYSEIGMKGERRRGKGHDGLYQGLSTATKDTYDALHMQALPPR
66.4 | 17.9 | CAR5 (LH_LCD6_HCG5_20AA) (other, also called construct 5; pDR000083438) DIVLTQSPDSLAVSLGERATINCKASESVEYFGTSLMHWYQQKPGQPPKLLIYAASNRESGVPDRFSGSGSGTDFTLTIQSVQAEDVSVYFCQQTRKVPYTFGQGTKLEIKGGSEGKSSGSGSESKSTGGSQVQLQESGPGLVKPSDTLSLTCAVSGNSITSDYAWNWIRQFPGKGLEWMGYISYSGSTTYNPSLKSRVTISRDTSKNQFSLKLSSVTPVDTAVYYCATGYYYGSGFWGQGTLVTVSSTSTPAPRPPTPAPTIASQPLSLRPEACRPAAGGAVHTRGLDFACDIYIWAPLAGTCGVLLLSLVITLYCKRGRKKLLYIFKQPFMRPVQTTQEEDGCSCRFPEEEEGGCELRVKFSRSADAPAYKQGQNQLYNELNLGRREEYDVLDKRRGRDPEMGGKPRRKNPQEGLYNELQKDKMAEAYSEIGMKGERRRGKGHDGLYQGLSTATKDTYDALHMQALPPR
